# Measurements: doi:10.1101/2025.02.16.638571 (bioRxiv, 2025)
# T1: NiVM G head domain protein (residues 176-602) (Nipah virus, Malaysia strain (NiVM), UniProt Q9IH62 176-602)
# T1 sequence: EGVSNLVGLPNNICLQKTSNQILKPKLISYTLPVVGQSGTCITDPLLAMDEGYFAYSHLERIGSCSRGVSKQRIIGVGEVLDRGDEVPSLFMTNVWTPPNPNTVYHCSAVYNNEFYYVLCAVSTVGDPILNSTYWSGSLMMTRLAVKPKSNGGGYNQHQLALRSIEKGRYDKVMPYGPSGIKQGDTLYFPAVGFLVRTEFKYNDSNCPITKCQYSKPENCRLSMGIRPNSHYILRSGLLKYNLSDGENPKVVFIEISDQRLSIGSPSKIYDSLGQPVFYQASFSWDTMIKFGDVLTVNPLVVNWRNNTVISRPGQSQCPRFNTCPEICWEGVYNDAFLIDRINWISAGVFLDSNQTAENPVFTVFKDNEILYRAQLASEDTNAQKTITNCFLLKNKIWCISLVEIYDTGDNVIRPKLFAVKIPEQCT
# B1: mAb S1E2 (antibody, V domains shown)
# VH: QMQLQESGPGLVKPSQSLSLTCSVTGYSITSGYYWNWIRQFSGNKLEWMGYINHDGSKNYNPSLKNRISITRDTSKNQFFLKLNSVTTEDTATYYCARDYGSYYYPMDYWGQGTSVTVSS
# VL: EIVLTQSPPIMSASPGEKVTITCSASSSVTFMHWFQQKPGTSPKLWIFSTSNLASGVPARFSGSGSGTSYSLTISRMEAEDAATYYCQQRSSYPFTFGSGTKLEIK
# B2: mAb S2B10 (antibody, V domains shown)
# VH: QMQLQESGPGLVKPSQSLSLTCTVTGYSITSDYAWNWIRQFPRNKLEWMGFITYSGSTSYNPSLKSRISLTRDTSKNQFFLQLSSVTTEDTATYYCARSGANWDWFAYWGQGTLVTVSA
# VL: DIQMTQSPASLAVSLGQRATISCRASESVDNYGNSFMHWYQQKPGQPPKLLIYRASKLESGIPARFSGSGSRTDFTLTINPVEADDVATYHCQQSNEDPWTFGGGTKLEIK
# B3: S1E2 Fab (Fab, V domains shown)
# VH: QMQLQESGPGLVKPSQSLSLTCSVTGYSITSGYYWNWIRQFSGNKLEWMGYINHDGSKNYNPSLKNRISITRDTSKNQFFLKLNSVTTEDTATYYCARDYGSYYYPMDYWGQGTSVTVSS
# VL: EIVLTQSPPIMSASPGEKVTITCSASSSVTFMHWFQQKPGTSPKLWIFSTSNLASGVPARFSGSGSGTSYSLTISRMEAEDAATYYCQQRSSYPFTFGSGTKLEIK
# B4: S2B10 Fab (Fab, V domains shown)
# VH: QMQLQESGPGLVKPSQSLSLTCTVTGYSITSDYAWNWIRQFPRNKLEWMGFITYSGSTSYNPSLKSRISLTRDTSKNQFFLQLSSVTTEDTATYYCARSGANWDWFAYWGQGTLVTVSA
# VL: DIQMTQSPASLAVSLGQRATISCRASESVDNYGNSFMHWYQQKPGQPPKLLIYRASKLESGIPARFSGSGSRTDFTLTINPVEADDVATYHCQQSNEDPWTFGGGTKLEIK
# B5: LN3D3 Fab (Fab, V domains shown)
# VH: EVKLEESGPELVKPGASVKMSCKASGYTFTNYVMHWVKQKPGQGLEWIGYVNPYNDGTQYNEKFRDKATLTSDKSSSTVYMELNSLTSEDSAVYYCTRGDYPYWVFEVWGAGTTVTVSS
# VL: EIQMTQSPATLSVTPGDSVSLSCRASQSISNNLHWYQQKSHESPRLLIKYASQSISGIPSRFSGSGSGTDFTLSINNLETEDFGMYFCQHSDSWPFTFGSGTKLEIK
# B6: LN1F9 Fab (Fab, V domains shown)
# VH: EVKLVESGGGLVKPGGSLKLSCAASGFSFRNYAMSWVRQSPEKRLEWVAEVSSGGGYTYYPDTVTGRFTISRDNAKNILYLEMSSLRSEDTAMYYCTRDPDSSGYLAWFAYWGQGTLVTVSA
# VL: DILLTQSPASLSASVGETVTITCRASENINSYLAWYQQKQGKSPQLLVYNAKTLAEGVPSRFSGSGSDTQFSLKINTLQPEDFGTYYCQHHSGTPYTFGGGTKLEIK
# B7: mAb LN1F9 (antibody, V domains shown)
# VH: EVKLVESGGGLVKPGGSLKLSCAASGFSFRNYAMSWVRQSPEKRLEWVAEVSSGGGYTYYPDTVTGRFTISRDNAKNILYLEMSSLRSEDTAMYYCTRDPDSSGYLAWFAYWGQGTLVTVSA
# VL: DILLTQSPASLSASVGETVTITCRASENINSYLAWYQQKQGKSPQLLVYNAKTLAEGVPSRFSGSGSDTQFSLKINTLQPEDFGTYYCQHHSGTPYTFGGGTKLEIK
# B8: mAb LN3D3 (antibody, V domains shown)
# VH: EVKLEESGPELVKPGASVKMSCKASGYTFTNYVMHWVKQKPGQGLEWIGYVNPYNDGTQYNEKFRDKATLTSDKSSSTVYMELNSLTSEDSAVYYCTRGDYPYWVFEVWGAGTTVTVSS
# VL: EIQMTQSPATLSVTPGDSVSLSCRASQSISNNLHWYQQKSHESPRLLIKYASQSISGIPSRFSGSGSGTDFTLSINNLETEDFGMYFCQHSDSWPFTFGSGTKLEIK
# B9: human ephrin-B2 (residues 27-167) (receptor)
# chain: SIVLEPIYWNSSNSKFLPGQGLVLYPQIGDKLDIICPKVDSKTVGQYEYYKVYMVDKDQADRCTIKKENTPLLNCAKPDQDIKFTIKFQEFSPNLWGLEFQKNKDYYIISTSNGSLEGLDNQEGGVCQTRAMKILMKVGQD
# Assays:
# [1] = biological target: T2, NiVM G head domain protein (residues 176-602) (Nipah virus, Malaysia strain (NiVM), UniProt Q9IH62); experiment: BLI
# [2] = biological target: LayV G head domain (residues 176-625) (Langya virus, GenBank UUV47206.1, UniProt A0AAX3C924); experiment: ELISA
# [3] = biological target: NiVM G ectodomain (residues 96-602) (Nipah virus, Malaysia strain, …, UniProt Q9IH62); experiment: ELISA
# [4] = biological target: MojV G head domain (residues 176-625) (Mojiang virus, GenBank YP_009094095.1, UniProt W8TIR7); experiment: ELISA
# [5] = biological target: T2, NiVM G head domain protein (residues …); experiment: cryo-EM structure
# [6] = biological target: deglycosylated NiVM G head domain without the His-tag (residues 176-602) (Nipah virus, Malaysia strain, …, UniProt Q9IH62); experiment: crystal structure
# [7] = biological target: T1, NiVM G head domain protein (residues …); experiment: BLI
Binder,binding result [1],binding result [2],binding result [3],binding result [4],binding result [5],also measured
B1,binds,no binding (tested: 1 μg/mL),binds,no binding (tested: 1 μg/mL),–,–
B2,binds,no binding (tested: 1 μg/mL),binds,no binding (tested: 1 μg/mL),–,–
B3,–,–,–,–,binds,–
B4,–,–,–,–,binds,–
B5,–,–,–,–,binds,–
B6,–,–,–,–,–,binding result [6]: binds
B7,binds,no binding (tested: 1 μg/mL),binds,no binding (tested: 1 μg/mL),–,–
B8,binds,no binding (tested: 1 μg/mL),binds,no binding (tested: 1 μg/mL),–,–
B9,–,–,–,–,–,binding result [7]: binds
